{"source": "paper PMC4319037", "about": "“The B-type Channel Is a Major Route for Iron Entry into the Ferroxidase Center and Central Cavity of Bacterioferritin*” (The Journal of Biological Chemistry, 2014)", "proteins": {"B1": {"name": "E. coli bacterioferritin D132F variant (natural protein)", "chain": "not shown", "notes": "Bacterioferritin (BFR), E. coli, bfr gene in pET21a (pALN1) with D132F made by QuikChange; the model holds '12 complete monomers' in the asymmetric unit (1896 C-alpha atoms for the 12-mer, i.e. 158 per chain); Crystallised with <1 heme/24-mer, free of metal ions (apo); no tag is mentioned; also called BFR D132F; apo-D132F variant; copies: 24"}}, "target": "the molecule itself", "assay": "crystal structure; hanging-drop vapor diffusion; ammonium sulfate (50-80% saturated), NaCl 0.1 M, Tris HCl 20 mM pH 7.2; BFR D132F with <1 heme/24-mer; 12 monomers in the asymmetric unit; 2.0 Å", "data": [{"protein": "B1", "values": [{"measurement": "binding result", "value": "binds"}]}]}
